According to publication PMC8687477 (2021):

B1: recombinant human CCL21 (ligand)
chain: SDGGAQDCCLKYSQRKIPAKVVRSYRKQEPSLGCSIPAILFLPRKRSQAELCADPKELWVQQLMQHLDKTPSPQKPAQGCRKDRGASKTGKKGKGSKGCKRTERSQTPKGP
B2: recombinant human CCL11 (ligand)
chain: not shown
B3: recombinant human CXCL4 (ligand)
chain: EAEEDGDLQCLCVKTTSQVRPRHITSLEVIKAGPHCPTAQLIATLKNGRKICLDLQAPLYKKIIKKLLES
B4: recombinant human CXCL14 (ligand)
chain: SKCKCSRKGPKIRYSDVKKLEMKPKYPHCEEKMVIITTKSVSRYRGQEHCLHPKLQSTKRFIKWYNAWNEKRRVYEE
B5: recombinant human CXCL9 (ligand)
chain: TPVVRKGRCSCISTNQGTIHLQSLKDLKQFAPSPSCEKIEIIATLKNGVQTCLNPDSADVKELIKKWEKQVSQKKKQKNGKKHQKKKVLKVRKSQRSRQKKTT
B6: recombinant human CCL26 (ligand)
chain: TRGSDISKTCCFQYSHKPLPWTWVRSYEFTSNSCSQRAVIFTTKRGKKVCTHPRKKWVQKYISLLKTPKQL
B7: recombinant human CCL5 (ligand)
chain: SPYSSDTTPCCFAYIARPLPRAHIKEYFYTSGKCSNPAVVFVTRKNRQVCANPEKKWVREYINSLEMS
B8: recombinant human CCL28 (ligand)
chain: SEAILPIASSCCTEVSHHISRRLLERVNMCRIQRADGDCDLAAVILHVKRRRICVSPHNHTVKQWMKVQAAKKNGKGNVCHRKKHHGKRNSNRAHQGKHETYGHKTPY
B9: recombinant human CXCL11 (ligand)
chain: FPMFKRGRCLCIGPGVKAVKVADIEKASIMYPSNNCDKIEVIITLKENKGQRCLNPKSKQARLIIKKVERKNF

Key:
[1] = target: T1, SARS-CoV-2 nucleocapsid protein (N), 2X-StrepTag tagged (SARS-CoV-2, UniProt P0DTC9 1-419); assay: BLI
[2] = target: T1, SARS-CoV-2 nucleocapsid protein (N), …; assay: BLI; remark: listed apart in the source

| Binder | koff [1] [s⁻¹] | Kd [2] [nM] |
| --- | --- | --- |
| B1 | 0.0014 | 14 |
| B2 | 0.0045 | 72 |
| B3 | 0.00053 | 170 |
| B4 | 0.0019 | 45 |
| B5 | 0.00085 | 12 |
| B6 | 0.00093 | 26 |
| B7 | 0.00019 | – |
| B8 | 0.00087 | 22 |
| B9 | 0.0033 | 130 |
